B1: LGI1 (wild type, pull-down with ADAM22/23 ECD-FLAG) [human] / ADAM22 ECD-FLAG [human] (parent complex)
chain 1: KKPAKPKCPAVCTCTKDNALCENARSIPRTVPPDVISLSFVRSGFTEISEGSFLFTPSLQLLLFTSNSFDVISDDAFIGLPHLEYLFIENNNIKSISRHTFRGLKSLIHLSLANNNLQTLPKDIFKGLDSLTNVDLRGNSFNCDCKLKWLVEWLGHTNATVEDIYCEGPPEYKKRKINSLSSKDFDCIITEFAKSQDLPYQSLSIDTFSYLNDEYVVIAQPFTGKCIFLEWDHVEKTFRNYDNITGTSTVVCKPIVIETQLYVIVAQLFGGSHIYKRDSFANKFIKIQDIEILKIRKPNDIETFKIENNWYFVVADSSKAGFTTIYKWNGNGFYSHQSLHAWYRDTDVEYLEIVRTPQTLRTPHLILSSSSQRPVIYQWNKATQLFTNQTDIPNMEDVYAVKHFSVKGDVYICLTRFIGDSKVMKWGGSSFQDIQRMPSRGSMVFQPLQINNYQYAILGSDYSFTQVYNWDAEKAKFVKFQELNVQAPRSFTHVSINKRNFLFASSFKGNTQIYKHVIVDLSA
chain 2: SKRQLRRYPRNVEEETKYIELMIVNDHLMFKKHRLSVVHTNTYAKSVVNMADLIYKDQLKTRIVLVAMETWATDNKFAISENPLITLREFMKYRRDFIKEKSDAVHLFSGSQFESSRSGAAYIGGICSLLKGGGVNEFGKTDLMAVTLAQSLAHNIGIISDKRKLASGECKCEDTWSGCIMGDTGYYLPKKFTQCNIEEYHDFLNSGGGACLFNKPSKLLDPPECGNGFIETGEECDCGTPAECVLEGAECCKKCTLTQDSQCSDGLCCKKCKFQPMGTVCREAVNDCDIRETCSGNSSQCAPNIHKMDGYSCDGVQGICFGGRCKTRDRQCKYIWGQKVTASDKYCYEKLNIEGTEKGNCGKDKDTWIQCNKRDVLCGYLLCTNIGNIPRLGELDGEITSTLVVQQGRTLNCSGGHVKLEEDVDLGYVEDGTPCGPQMMCLEHRCLPVASFNFSTCLSSKEGTICSGNGVCSNELKCVCNRHWIGSDCNTYFPHNDDAKTGITLSG
B2: LGI1 (wild type, pull-down with ADAM22/23 ECD-FLAG) [human] / ADAM23 ECD-FLAG [human] (parent complex)
chain 1: B1 chain 1
chain 2: AVNPSRGIFEEMKYLELMIVNDHKTYKKHRSSHAHTNNFAKSVVNLVDSIYKEQLNTRVVLVAVETWTEKDQIDITTNPVQMLHEFSKYRQRIKQHADAVHLISRVTFHYKRSSLSYFGGVCSRTRGVGVNEYGLPMAVAQVLSQSLAQNLGIQWEPSSRKPKCDCTESWGGCIMEETGVSHSRKFSKCSILEYRDFLQRGGGACLFNRPTKLFEPTECGNGYVEAGEECDCGFHVECYGLCCKKCSLSNGAHCSDGPCCNNTSCLFQPRGYECRDAVNECDITEYCTGDSGQCPPNLHKQDGYACNQNQGRCYNGECKTRDNQCQYIWGTKAAGSDKFCYEKLNTEGTEKGNCGKDGDRWIQCSKHDVFCGFLLCTNLTRAPRIGQLQGEIIPTSFYHQGRVIDCSGAHVVLDDDTDVGYVEDGTPCGPSMMCLDRKCLQIQALNMSSCPLDSKGKVCSGHGVCSNEATCICDFTWAGTDCSIRDPVRNLHPPKDEGPKGPSA

Variants of: B1
Assay: pull-down; anti-FLAG antibody agarose; proteins secreted from HEK293T cells; n = 4 independent experiments; read off a plot

Row | Variant | percent of parent
1 | chain 1 KKPAKPKCPAVCTCTKDNALCENARSIPRTVPPDVISLSFVRSGFTEISEGSFLFTPSLQLLLFTSNSFDVISDDAFIGLPHLEYLFIENNNIKSISRHTFRGLKSLIHLSLANNNLQTLPKDIFKGLDSLTNVDLRGNSFNCDCKLKWLVEWLGHTNATVEDIYCEGPPEYKKRKINSLSSKDFDCIITEFAKSQDLPYQSLSIDTFSYLNDEYVVIAQPFTGKCIFLEWDHVEKTFRNYDNITGTSTAVCKPIVIETQLYVIVAQLFGGSHIYKRDSFANKFIKIQDIEILKIRKPNDIETFKIENNWYFVVADSSKAGFTTIYKWNGNGFYSHQSLHAWYRDTDVEYLEIVRTPQTLRTPHLILSSSSQRPVIYQWNKATQLFTNQTDIPNMEDVYAVKHFSVKGDVYICLTRFIGDSKVMKWGGSSFQDIQRMPSRGSMVFQPLQINNYQYAILGSDYSFTQVYNWDAEKAKFVKFQELNVQAPRSFTHVSINKRNFLFASSFKGNTQIYKHVIVDLSA [chain 1 V250A] | ~35 % of WT
2 | chain 1 KKPAKPKCPAVCTCTKDNALCENARSIPRTVPPDVISLSFVRSGFTEISEGSFLFTPSLQLLLFTSNSFDVISDDAFIGLPHLEYLFIENNNIKSISRHTFRGLKSLIHLSLANNNLQTLPKDIFKGLDSLTNVDLRGNSFNCDCKLKWLVEWLGHTNATVEDIYCEGPPEYKKRKINSLSSKDFDCIITEFAKSQDLPYQSLSIDTFSYLNDEYVVIAQPFTGKCIFLEWDHVEKTFRNYDNITGTSTVVCKPIVIETQLYVIVAQAFGGSHIYKRDSFANKFIKIQDIEILKIRKPNDIETFKIENNWYFVVADSSKAGFTTIYKWNGNGFYSHQSLHAWYRDTDVEYLEIVRTPQTLRTPHLILSSSSQRPVIYQWNKATQLFTNQTDIPNMEDVYAVKHFSVKGDVYICLTRFIGDSKVMKWGGSSFQDIQRMPSRGSMVFQPLQINNYQYAILGSDYSFTQVYNWDAEKAKFVKFQELNVQAPRSFTHVSINKRNFLFASSFKGNTQIYKHVIVDLSA [chain 1 L268A] | ~8 % of WT

The remaining lines, values ahead:

Row | percent of parent | Variant
3 | ~85 % of WT | chain 1 KKPAKPKCPAVCTCTKDNALCENARSIPRTVPPDVISLSFVRSGFTEISEGSFLFTPSLQLLLFTSNSFDVISDDAFIGLPHLEYLFIENNNIKSISRHTFRGLKSLIHLSLANNNLQTLPKDIFKGLDSLTNVDLRGNSFNCDCKLKWLVEWLGHTNATVEDIYCEGPPEYKKRKINSLSSKDFDCIITEFAKSQDLPYQSLSIDTFSYLNDEYVVIAQPFTGKCIFLEWDHVEKTFRNYDNITGTSTVVCKPIVIETQLYVIVAQLFGGSHIYKRDSFANKFIKIQDIEILKIAKPNDIETFKIENNWYFVVADSSKAGFTTIYKWNGNGFYSHQSLHAWYRDTDVEYLEIVRTPQTLRTPHLILSSSSQRPVIYQWNKATQLFTNQTDIPNMEDVYAVKHFSVKGDVYICLTRFIGDSKVMKWGGSSFQDIQRMPSRGSMVFQPLQINNYQYAILGSDYSFTQVYNWDAEKAKFVKFQELNVQAPRSFTHVSINKRNFLFASSFKGNTQIYKHVIVDLSA [chain 1 R296A]
4 | ~37 % of WT | chain 1 KKPAKPKCPAVCTCTKDNALCENARSIPRTVPPDVISLSFVRSGFTEISEGSFLFTPSLQLLLFTSNSFDVISDDAFIGLPHLEYLFIENNNIKSISRHTFRGLKSLIHLSLANNNLQTLPKDIFKGLDSLTNVDLRGNSFNCDCKLKWLVEWLGHTNATVEDIYCEGPPEYKKRKINSLSSKDFDCIITEFAKSQDLPYQSLSIDTFSYLNDEYVVIAQPATGKCIFLEWDHVEKTFRNYDNITGTSTVVCKPIVIETQLYVIVAQLFGGSHIYKRDSFANKFIKIQDIEILKIRKPNDIETFKIENNWYFVVADSSKAGFTTIYKWNGNGFYSHQSLHAWYRDTDVEYLEIVRTPQTLRTPHLILSSSSQRPVIYQWNKATQLFTNQTDIPNMEDVYAVKHFSVKGDVYICLTRFIGDSKVMKWGGSSFQDIQRMPSRGSMVFQPLQINNYQYAILGSDYSFTQVYNWDAEKAKFVKFQELNVQAPRSFTHVSINKRNFLFASSFKGNTQIYKHVIVDLSA [chain 1 F222A]

Variants of: B2
Assay: as above

Row | percent of parent | Variant
5 | ~14 % of WT | chain 1 KKPAKPKCPAVCTCTKDNALCENARSIPRTVPPDVISLSFVRSGFTEISEGSFLFTPSLQLLLFTSNSFDVISDDAFIGLPHLEYLFIENNNIKSISRHTFRGLKSLIHLSLANNNLQTLPKDIFKGLDSLTNVDLRGNSFNCDCKLKWLVEWLGHTNATVEDIYCEGPPEYKKRKINSLSSKDFDCIITEFAKSQDLPYQSLSIDTFSYLNDEYVVIAQPFTGKCIFLEWDHVEKTFRNYDNITGTSTVVCKPIVIETQLYVIVAQAFGGSHIYKRDSFANKFIKIQDIEILKIRKPNDIETFKIENNWYFVVADSSKAGFTTIYKWNGNGFYSHQSLHAWYRDTDVEYLEIVRTPQTLRTPHLILSSSSQRPVIYQWNKATQLFTNQTDIPNMEDVYAVKHFSVKGDVYICLTRFIGDSKVMKWGGSSFQDIQRMPSRGSMVFQPLQINNYQYAILGSDYSFTQVYNWDAEKAKFVKFQELNVQAPRSFTHVSINKRNFLFASSFKGNTQIYKHVIVDLSA [chain 1 L268A]
6 | ~46 % of WT | chain 1 KKPAKPKCPAVCTCTKDNALCENARSIPRTVPPDVISLSFVRSGFTEISEGSFLFTPSLQLLLFTSNSFDVISDDAFIGLPHLEYLFIENNNIKSISRHTFRGLKSLIHLSLANNNLQTLPKDIFKGLDSLTNVDLRGNSFNCDCKLKWLVEWLGHTNATVEDIYCEGPPEYKKRKINSLSSKDFDCIITEFAKSQDLPYQSLSIDTFSYLNDEYVVIAQPFTGKCIFLEWDHVEKTFRNYDNITGTSTVVCKPIVIETQLYVIVAQLFGGSHIYKRDSFANKFIKIQDIEILKIRAPNDIETFKIENNWYFVVADSSKAGFTTIYKWNGNGFYSHQSLHAWYRDTDVEYLEIVRTPQTLRTPHLILSSSSQRPVIYQWNKATQLFTNQTDIPNMEDVYAVKHFSVKGDVYICLTRFIGDSKVMKWGGSSFQDIQRMPSRGSMVFQPLQINNYQYAILGSDYSFTQVYNWDAEKAKFVKFQELNVQAPRSFTHVSINKRNFLFASSFKGNTQIYKHVIVDLSA [chain 1 K297A]

From publication PMC5906670, “Structural basis of epilepsy-related ligand–receptor complex LGI1–ADAM22” (Nature Communications, 2018)
